# Molecular target: T1, HLA-A2 (human)
# T1 construct: MHC class I molecule without added peptide, from cell lysate; stably folded molecules immunoprecipitated with a conformation-dependent antibody; also called HLA-A*0201; HLA A*0201
# Assay: assembly assay, T2 cell lysate
row,Binder,binding result
1,TAKKVRRAI (also called Survivin127-135) [Sur7],no binding
2,RAIEQLAAM (also called Survivin133-141) [Sur2],no binding
3,SVKKQFEEL (also called Survivin88-96) [Sur5],no binding
4,ETAKKVRRAI (also called Survivin126-135) [Sur10],no binding

# Molecular target: T1, HLA-A2
# Assay: assembly assay, TAP-deficient cell lysate
row,Binder,binding result
1,SVKKQFEELTL [Sur88-98],no binding
2,LAQCFFCFKEL [Sur54-64],no binding
3,PTLPPAWQPFL [Sur4-14],no binding
4,KLDRERAKNKI [Sur103-113],no binding

# Molecular target: T2, HLA-A3 (human)
# T2 construct: MHC class I molecule from cell lysate; immunoprecipitated with mAb W6/32; also called HLA-A*0301
# Assay: assembly assay, TAP-deficient cell lysate
row,Binder,binding result
1,KLDRERAKNK [Sur 103-112],no binding
2,PTIRRKNLRK (the text says nothing of its origin) [SurEx3-A3-2],no binding
3,RITREEHKK (the text says nothing of its origin) [Sur2b-A3-1],no binding
4,DLAQCFFCF [Sur 53-61],no binding
5,DLAQCFFCK [Sur53K9],no binding
6,FLKDHRISTK [Sur13K9],no binding
7,IAKETNNKKK [Sur 113-122],no binding
8,RISTFKNWPF [Sur 18-27],no binding
9,CAFLSVKKQF [Sur 84-93],no binding
10,FLKLDRERAK [Sur 101-110],no binding

# Molecular target: T3, HLA-A1 (human)
# T3 construct: MHC class I molecule; also called HLA-A*0101
# Assay: assembly assay, TAP-deficient cell lysate
row,Binder,binding result
1,MAEAGFIHC [Sur38-46],"no binding (tested: peptide tested at 40, 4, 0.4, 0.04 µM)"
2,ENEPDLAQCF [Sur49-58],"no binding (tested: peptide tested at 40, 4, 0.4, 0.04 µM)"
3,ENEPDLAQCY [sur49Y9],"no binding (tested: peptide tested at 40, 4, 0.4, 0.04 µM)"
4,FEELTLGEY [sur93Y9],"no binding (tested: peptide tested at 40, 4, 0.4, 0.04 µM)"
5,EPDLAQCFF (also called Survivin51-59) [Sur51-59],"no binding (tested: peptide tested at 40, 4, 0.4, 0.04 µM)"
6,LKDHRISTF [Sur14-22],"no binding (tested: peptide tested at 40, 4, 0.4, 0.04 µM)"
7,LKDHRISTY [sur14Y9],"no binding (tested: peptide tested at 40, 4, 0.4, 0.04 µM)"
8,QFEELTLGEY [sur92Y9],"no binding (tested: peptide tested at 40, 4, 0.4, 0.04 µM)"
9,PTENEPDLAQ [Sur47-56],"no binding (tested: peptide tested at 40, 4, 0.4, 0.04 µM)"
10,TPERMAEAGF (also called Survivin34-43) [Sur34-43],"no binding (tested: peptide tested at 40, 4, 0.4, 0.04 µM)"
11,TPERMAEAGY [sur34Y9],"no binding (tested: peptide tested at 40, 4, 0.4, 0.04 µM)"

# Molecular target: T4, HLA-A11 (human)
# T4 construct: MHC class I molecule from cell lysate; immunoprecipitated with mAb W6/32; also called HLA-A*1101
# Assay: assembly assay, TAP-deficient cell lysate
row,Binder,binding result
1,KLDRERAKNK [Sur 103-112],"no binding (tested: peptide tested at 40, 4, 0.4, 0.04 µM)"
2,DLAQCFFCF [Sur 53-61],"no binding (tested: peptide tested at 40, 4, 0.4, 0.04 µM)"
3,IAKETNNKKK [Sur 113-122],"no binding (tested: peptide tested at 40, 4, 0.4, 0.04 µM)"
4,ELTLGEFLK [Sur 95-103],"no binding (tested: peptide tested at 40, 4, 0.4, 0.04 µM)"
5,RISTFKNWPF [Sur 18-27],"no binding (tested: peptide tested at 40, 4, 0.4, 0.04 µM)"
6,CAFLSVKKQF [Sur 84-93],"no binding (tested: peptide tested at 40, 4, 0.4, 0.04 µM)"
7,FLKLDRERAK [Sur 101-110],"no binding (tested: peptide tested at 40, 4, 0.4, 0.04 µM)"

# Molecular target: HLA-B35 (human)
# Assay: assembly assay, T2-B35 cell lysate, W6/32 IP, IEF gel
row,Binder,C50
1,CPTENEPDL (also called Survivin46-54) [Sur46-54],20 µM
2,CPTENEPDY [Sur46Y9],4 µM
3,EPDLAQCFY [Sur51Y9],1.5 µM
4,EPDLAQCFF (also called Survivin51-59) [Sur51-59],13 µM
5,LPPAWQPFL (also called Survivin6-14) [Sur6-14],> 100 µM
6,TPERMAEAGF (also called Survivin34-43) [Sur34-43],> 100 µM
